From patent publication US20210155712A1 (HUMMINGBIRD BIOSCIENCE HOLDINGS PTE, published 2021) come the findings set out here.

The target in test [1] is T1, human HER2 (human, UniProt P04626 23-652).
T1 construct: also called His-tagged HER2 protein
Put plainly: ELISA, plate coated with 0.1 ug/ml target polypeptide, antibody titrated, absorbance 450 nm. On the procedure:
(§1) ELISAs were used to determine the binding specificity of the antibodies. […] The antibodies were also analysed for their ability to bind to human EGFR and human HER2 (Sino Biological Inc., China).
(§2) ELISAs were carried out according to standard protocols. Briefly, 96-well plates (Nunc, Denmark) were coated with 0.1 μg/ml of target polypeptide in phosphate-buffered saline (PBS) for 16 h at 4° C. After blocking for 1 h with 1% BSA in Tris buffer saline (TBS) at room temperature, the anti-HER3 antibody was serially diluted with the highest concentration being 10 μg/ml, and added to the plate. Post 1 h incubation at room temperature, plates were washed three times with TBS containing 0.05% Tween 20 (TBS-T) and were then incubated with a HRP-conjugated […] antibody (Life Technologies, Inc., USA) for 1 h at room temperature. After washing, plates were developed with colorimetric detection substrate 3,3′,5,5′-tetramethylbenzidine (Turbo-TMB; Pierce, USA) for 10 min. The reaction was stopped with 2M H₂SO₄, and OD was measured at 450 nm.

In test [2] the target is T2, human EGFR (human, UniProt P00533 25-645).
T2 construct: also called human HER1 (EGFR); human EGFR-His
The test is described as above. On the procedure:
as §1, §2

Test [3] deals with T2, human EGFR. Put plainly: ELISA, coated human EGFR (HER1), antibody titrated, absorbance 450 nm. A general note: An ELISA detects its analyte on a solid surface through an enzyme-linked reagent.
The target in test [4] is T1, human HER2. The test can be described thus: ELISA, coated human HER2, antibody titrated, absorbance 450 nm.
Test [5] concerns the target T3, human HER3 expressed on cells (human, UniProt P21860 20-1342).
T3 construct: HEK293 cells transfected with a vector encoding human HER3; Also used here for HER3 on U2OS PathHunter cells and cancer cell lines; also called HEK293 HER3 O/E cells; HER3-expressing cells
Put plainly: flow cytometry on HEK293 cells overexpressing human HER3, 20 ug/ml antibody, FITC anti-Fc secondary. On the procedure: The cells were washed thrice with FACS buffer (PBS with 5 mM EDTA and 0.5% BSA) and resuspended in FITC-conjugated anti-FC antibody (Invitrogen, USA) for 40 min at 2-8° C. Cells were washed again and resuspended in 200 μL of FACS flow buffer (PBS with 5 mM EDTA) for flow cytometric analysis using MACSQuant 10 (Miltenyi Biotec, Germany). After acquisition, all raw data were analyzed using Flowlogic software. Cells were gated using forward and side scatter profile percentage of positive cells was determined for native and overexpressing cell populations.
(In flow cytometry, cells or beads pass a laser one at a time.)

B1: anti-HER3 clone 10D1 IgG1 (antibody)
heavy: not shown
light: DIVMTQSQKFMSTSVGDRVSVTCKASQIVGSNVAWYQQKPGQSPKPLIYSASYRYSGVPDRFTASGSGTDFTLTITNVQSEDLAEYFCQQYSSHPLTFGAGTKLELKRTVAAPSVFIFPPSDEQLKSGTASVVCLLNNFYPREAKVQWKVDNALQSGNSQESVTEQDSKDSTYSLSSTLTLSKADYEKHKVYACEVTHQGLSSPVTKSFNRGEC
notes: also called 10D1P; 10D1 (parental)
Regarding B1, the binding result with human HER2 [1] and with human EGFR [2] was “no binding (tested: about 2e-7 M (log -6.7))” in each case.

B2: 10D1F.FcA (antibody, human IgG1, kappa)
heavy: not shown
light: DIQMTQSPSSVSASVGDRVTITCKASQIVGSNVAWYQQKPGKAPEPLIYSASYLYSGVPSRFSGSGSGTDFTLTISSLQPEDFATYYCQQYSSHPLTFGQGTKLEIKRTVAAPSVFIFPPSDEQLKSGTASVVCLLNNFYPREAKVQWKVDNALQSGNSQESVTEQDSKDSTYSLSSTLTLSKADYEKHKVYACEVTHQGLSSPVTKSFNRGEC
notes: the full chains 206/207 are used here; also called 10D1F.A; anti-HER3 clone 10D1_c89 IgG1
B2: the binding result in the test with human EGFR [3] and in the test with human HER2 [4] was “no binding (tested: last point at about log(M) -8.1)” each time.

B3: anti-HER3 clone 10D1_c90 IgG1 (antibody, V domains shown)
VH: QVQLQESGPGLVKPSQTLFLTCTVSGYSITSGYSWHWIRQHPGKGLEWIGSIRYSGGTDYNPSLKSLVTISVDTSKNQFSLKLSSVTAADTAVYYCARMTTAPWYPFDYWGQGTTVTVSS
VL: DIQMTQSPSSVSASVGDRVTFTCKASQIVGSNVAWYQQKPGKAPEPLIYSASYLYSSVPSRFSGSGSGTEFTMTISSLEPEDFATYYCQQYTTHPLTFGPGTKVEIKR
notes: IgG1/kappa
Turning to B3, the “% Parent (HER3 Positive)” value in test [5] worked out at 41.9%.
